Reference: PMC8611336

Key:
[1] = biological target: SUVs of PM lipid composition; experiment: microscale thermophoresis (MST); conditions: value read at the highest lipid concentration, about 1600 µM; n = 3; parent: est. 105; read off a plot
[2] = biological target: SUVs of NE lipid composition; experiment: microscale thermophoresis (MST); conditions: value read at the highest lipid concentration, about 1600 µM; n = 3; parent: est. 88; read off a plot

response [1]: 35%
response [2]: 50%
Substance: AαH peptide (Apq12 58-68, …) L58D; F61R; I62N; F68N
